Values quoted from earlier work as cited in paper PMC10298792.

Experiments:
Bid BH3 (Homo sapiens) = Bid BH3 (Homo sapiens) (UniProt P55957); experiment: ITC
Pxt1 BH3 (Homo sapiens) = Pxt1 BH3 (Homo sapiens) (UniProt Q8NFP0); experiment: ITC
Pxt1 BH3 (Homo sapiens), sequence (Q8NFP0 76-101): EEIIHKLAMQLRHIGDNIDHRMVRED

Bcl-xL, sequence (Q07817 whole entry): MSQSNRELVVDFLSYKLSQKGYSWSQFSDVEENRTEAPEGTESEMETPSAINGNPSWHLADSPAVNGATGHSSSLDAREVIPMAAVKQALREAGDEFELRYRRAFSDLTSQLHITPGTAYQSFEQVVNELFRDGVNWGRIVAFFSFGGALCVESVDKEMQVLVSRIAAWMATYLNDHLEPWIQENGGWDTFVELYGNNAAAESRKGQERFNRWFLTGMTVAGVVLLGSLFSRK
Bak, sequence (Q16611 2-211): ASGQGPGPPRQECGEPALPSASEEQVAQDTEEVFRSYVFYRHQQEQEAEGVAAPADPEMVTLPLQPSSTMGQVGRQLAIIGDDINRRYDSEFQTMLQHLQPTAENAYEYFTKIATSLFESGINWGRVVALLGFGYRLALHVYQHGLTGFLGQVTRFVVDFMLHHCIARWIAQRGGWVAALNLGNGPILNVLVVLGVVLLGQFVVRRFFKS

Row | Kd (Bid BH3 (Homo sapiens)) | Kd (Pxt1 BH3 (Homo sapiens)) | Substance
1 | 22.7 µM |  | Bak (from UniProt Q16611)
2 | 0.00862 µM | 233 nM | Bcl-xL (from UniProt Q07817)
